Results reported in PMC8479633.

Legend:
[1] = target: phosphomimetic full-length SMAD2 (S2FLEEE) (UniProt Q15796); assay: SAXS with ensemble optimisation
[2] = target: SMAD2 linker-MH2 construct, non-phosphorylated (S2LMH2); assay: SAXS with ensemble optimisation

phosphomimetic full-length SMAD2 (S2FLEEE) (from UniProt Q15796 1-467) (natural protein), sequence (Q15796 whole entry): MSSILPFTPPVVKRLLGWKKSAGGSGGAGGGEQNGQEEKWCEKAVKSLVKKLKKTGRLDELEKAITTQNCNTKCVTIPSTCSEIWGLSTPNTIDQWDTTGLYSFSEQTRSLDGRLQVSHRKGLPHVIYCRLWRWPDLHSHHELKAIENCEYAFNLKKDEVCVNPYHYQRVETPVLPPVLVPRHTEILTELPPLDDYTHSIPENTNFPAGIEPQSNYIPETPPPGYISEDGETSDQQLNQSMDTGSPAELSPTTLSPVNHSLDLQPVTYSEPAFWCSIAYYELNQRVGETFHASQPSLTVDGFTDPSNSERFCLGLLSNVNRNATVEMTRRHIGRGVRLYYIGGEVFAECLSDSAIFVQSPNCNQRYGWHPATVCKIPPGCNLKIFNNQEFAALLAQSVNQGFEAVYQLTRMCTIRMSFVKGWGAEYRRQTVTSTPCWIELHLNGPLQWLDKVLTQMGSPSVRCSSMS
SMAD2 linker-MH2 construct, non-phosphorylated (S2LMH2) (domain or fragment), sequence (Q15796 269-467): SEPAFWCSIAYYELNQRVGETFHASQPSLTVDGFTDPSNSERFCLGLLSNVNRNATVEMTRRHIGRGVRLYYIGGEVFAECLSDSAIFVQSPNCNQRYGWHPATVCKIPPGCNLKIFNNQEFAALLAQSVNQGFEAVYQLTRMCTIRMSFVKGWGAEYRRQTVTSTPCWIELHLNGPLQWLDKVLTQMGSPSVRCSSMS

percent of the population as dimer [1] [%] | percent of the population as trimer [1] [%] | percent of the population as dimer [2] [%] | Substance
36 | 44.8 |  | phosphomimetic full-length SMAD2 (S2FLEEE) (from UniProt Q15796 1-467) (natural protein)
 |  | 25 | SMAD2 linker-MH2 construct, non-phosphorylated (S2LMH2) (domain or fragment)
